From FireProtDB (doi:10.1021/bi027202n) come the findings set out here.

Several values for one entry are separate records, joined by “and”; a condition that tells them apart may be missing. Identical values can stand only once.

The conditions of this data set: Geobacillus stearothermophilus, pH 5.4, CD, sodium phosphate 10 mM, reversible: yes(>90%), whole UniProt chain shown; for denaturant m value / denaturant midpoint (higher = more stable) / unfolding free energy: 25 °C, Urea.

B1: Large ribosomal subunit protein bL9 wild type, P02417 (protein)
chain: MKVIFLKDVKGKGKKGEIKNVADGYANNFLFKQGLAIEATPANLKALEAQKQKEQRQAAEELANAKKLKEQLEKLTVTIPAKAGEGGRLFGSITSKQIAESLQAQHGLKLDKRKIELADAIRALGYTNVPVKLHPEVTATLKVHVTEQK
Broadly, the Tm is the temperature at the midpoint of the melting transition. With B1, for the setting “sodium chloride 100 mM”, the denaturant m value was 0.72 kcal/mol/M and 0.64 kcal/mol/M; the “denaturant midpoint (higher = more stable)” value was 6.18 M and 3.16 M; the unfolding free energy was 4.45 kcal/mol and 2.02 kcal/mol. Also, where the note is “sodium chloride 750 mM”, the denaturant m value was 0.62 kcal/mol/M and 0.66 kcal/mol/M; the “denaturant midpoint (higher = more stable)” value was 7.76 M and 3.64 M; the unfolding free energy is 4.81 kcal/mol and 2.4 kcal/mol. For the same protein, the Tm (Thermal, sodium chloride 100 mM) stood at 56 °C.
